These are literature values, as cited in article PMC9346034.

In general, pKd refers to −log10 of the Kd, conventionally taken in molar units.

pKd: −log10 of the molar value.

One data set deals with Hsp70 (Homo sapiens) (UniProt P0DMV8).
Another data set addresses DnaK (Escherichia coli) (UniProt P0A6Y8).

DnaJ, sequence (P08622 2-376): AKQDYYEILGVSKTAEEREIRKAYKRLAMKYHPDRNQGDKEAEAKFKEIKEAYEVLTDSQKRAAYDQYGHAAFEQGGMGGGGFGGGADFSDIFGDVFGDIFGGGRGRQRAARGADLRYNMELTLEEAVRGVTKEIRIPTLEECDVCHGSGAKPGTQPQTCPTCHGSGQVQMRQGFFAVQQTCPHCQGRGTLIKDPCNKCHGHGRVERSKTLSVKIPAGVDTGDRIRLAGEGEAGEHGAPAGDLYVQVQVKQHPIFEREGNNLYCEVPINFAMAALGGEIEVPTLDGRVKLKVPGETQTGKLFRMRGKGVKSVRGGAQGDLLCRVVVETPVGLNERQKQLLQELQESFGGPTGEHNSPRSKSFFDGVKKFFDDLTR
Bag3-ΔBag ΔBag, sequence (O95817 2-420, stated change not applied): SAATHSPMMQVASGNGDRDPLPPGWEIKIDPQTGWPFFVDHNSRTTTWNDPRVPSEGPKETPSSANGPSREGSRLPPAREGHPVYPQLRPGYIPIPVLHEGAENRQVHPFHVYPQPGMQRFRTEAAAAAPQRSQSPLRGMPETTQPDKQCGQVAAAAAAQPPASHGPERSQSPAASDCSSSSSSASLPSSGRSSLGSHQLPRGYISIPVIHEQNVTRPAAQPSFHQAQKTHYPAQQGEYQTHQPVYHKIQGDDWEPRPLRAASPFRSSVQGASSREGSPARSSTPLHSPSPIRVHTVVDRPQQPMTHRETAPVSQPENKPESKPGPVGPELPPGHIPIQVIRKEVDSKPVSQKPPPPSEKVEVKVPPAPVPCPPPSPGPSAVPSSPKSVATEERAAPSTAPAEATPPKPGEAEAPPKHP
Bag3-ΔBag ΔBag, sequence (O95817 499-575, stated change not applied): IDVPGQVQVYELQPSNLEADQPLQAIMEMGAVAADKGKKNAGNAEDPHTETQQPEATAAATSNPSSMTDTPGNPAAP
DnaK (Escherichia coli), sequence (P0A6Y8 2-638): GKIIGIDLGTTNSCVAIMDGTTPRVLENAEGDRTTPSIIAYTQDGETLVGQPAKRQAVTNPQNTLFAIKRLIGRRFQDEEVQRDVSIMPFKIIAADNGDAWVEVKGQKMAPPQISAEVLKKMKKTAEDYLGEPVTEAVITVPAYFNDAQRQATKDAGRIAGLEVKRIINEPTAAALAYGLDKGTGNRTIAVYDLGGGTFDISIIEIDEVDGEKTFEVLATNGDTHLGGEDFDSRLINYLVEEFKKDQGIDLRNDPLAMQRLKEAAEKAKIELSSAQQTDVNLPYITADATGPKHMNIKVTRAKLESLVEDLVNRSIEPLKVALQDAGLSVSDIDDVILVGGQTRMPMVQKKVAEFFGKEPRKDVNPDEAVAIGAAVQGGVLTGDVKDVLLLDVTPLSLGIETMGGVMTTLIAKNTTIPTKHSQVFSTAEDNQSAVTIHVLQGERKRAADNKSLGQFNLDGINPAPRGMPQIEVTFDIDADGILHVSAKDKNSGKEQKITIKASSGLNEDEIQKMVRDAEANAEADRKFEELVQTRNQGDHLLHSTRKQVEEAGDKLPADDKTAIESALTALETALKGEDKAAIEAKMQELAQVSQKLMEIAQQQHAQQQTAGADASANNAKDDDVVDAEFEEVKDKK
Hsp70 (Homo sapiens), sequence (P0DMV8 2-641): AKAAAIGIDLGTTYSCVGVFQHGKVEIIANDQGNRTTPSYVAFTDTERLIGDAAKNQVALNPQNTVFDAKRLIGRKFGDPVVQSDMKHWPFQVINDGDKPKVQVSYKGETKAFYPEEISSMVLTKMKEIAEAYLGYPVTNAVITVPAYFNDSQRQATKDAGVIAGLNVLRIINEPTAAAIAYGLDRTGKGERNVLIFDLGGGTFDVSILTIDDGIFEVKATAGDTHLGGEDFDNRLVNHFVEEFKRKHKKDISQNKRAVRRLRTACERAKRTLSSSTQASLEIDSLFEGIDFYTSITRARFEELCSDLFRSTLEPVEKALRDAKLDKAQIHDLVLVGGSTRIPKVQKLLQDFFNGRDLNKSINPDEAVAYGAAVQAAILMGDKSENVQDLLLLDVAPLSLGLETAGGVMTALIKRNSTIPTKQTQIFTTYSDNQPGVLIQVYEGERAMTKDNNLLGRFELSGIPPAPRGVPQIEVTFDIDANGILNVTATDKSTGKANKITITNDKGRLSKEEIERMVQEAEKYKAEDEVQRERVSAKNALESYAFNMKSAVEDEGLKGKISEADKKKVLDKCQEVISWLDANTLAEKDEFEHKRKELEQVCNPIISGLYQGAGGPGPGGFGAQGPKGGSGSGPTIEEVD

Regarding Bag3-ΔBag ΔBag (from UniProt O95817), the pKd with Hsp70 (Homo sapiens) is 5.00.
In the case of DnaJ (from UniProt P08622), in the data set with DnaK (Escherichia coli), the pKd is 5.44.
